Experimental findings from paper PMC6078464 are described below.

The target of this experiment is PEDV nsp15 (H241A) (PEDV FJZZ strain). Put plainly: AUC.

PEDV nsp15 (H241A) (enzyme) yielded a percentage as hexamer of 81.2%.
